Results published in patent US5565425A, “Viral infection and proliferation inhibitors” (Snow Brand Milk Products Co., Ltd, priority 1993, dated 1996).

How the values were obtained:
HIV (HTLV-IIIB) = test: Inhibitory activity against HIV infection and proliferation in MT-4 cells (indirect fluorescence antibody method); type: cell-based, human immunodeficiency virus (HIV); settings: three days, positive control 26.0%
Method: (Method) Cultured supernatant of MOLT-4/HTLV-IIIB cells, a HTLV-IIIB persistent infected strain of HIV, was used as a viral solution. The supernatant was kept at -80° C. Human T cell line MT-4 was used for the test. MT-4 was subcultured in RPMI 1640 medium containing 10% fetal calf serum (FCS). Sample, LF derived peptide, was dissolved in RPMI 1640 medium and one ml of the diluted solution at various concentrations was added to the cells. The inoculated MT-4 test sample was incubated for 60 minutes and infected with HIV at a concentration of moi […]=0.01 and one ml of the cell solution adjusted at a cell density of 3×10^5 cells/ml was added. The cells were cultured for three days : and HIV infected cells were determined with an indirect fluorescence antibody method.
HIV infected cells were determined by the indirect fluorescence antibody method using HIV infected patient serum as a primary antibody. […] HIV infected MT-4 cells cultured without addition of the sample was used as a positive control and cells without addition of viral solution was cultured to make a negative control group.

[1] = tested on: influenza virus A/PR/8/34; settings: 100 μl of one mg/ml solution in allantoic cavity three hours before virus; average of five eggs
[2] = tested on: Human CMV (Tanaka strain); test: Inhibitory activity against human CMV infection and proliferation in HELF cells (fluorescence staining); type: cell-based, Human cytomegalo virus; settings: 24 hrs., concentration not given
Method: (Method) LF derived peptide was dissolved in 2% serum added MEM medium to give five mg/ml solution, filtered and sterilized to make a stock solution. The stock solution was diluted with 2% serum added MEM medium on use. Samples containing human embryo lung fibroblast cells (HELF cells) were suspended in 2% serum added MEM medium and incubated for 10 minutes. The cells were collected by centrifugation, washed twice with 2% serum added MEM medium and suspended in 2% serum added MEM medium. Human cytomegalo virus [Human CMV (Tanaka strain)] was added, incubated for 24 hrs., fluorescence stained with human CMV positive serum and the adsorption rate of human CMV to the cells was determined.
The results are judged from the numbers of fluorescent stained cells per one cover slip.

B1: Human LF: human lactoferrin, an iron-binding protein secreted in milk (protein, UniProt P02788 20-710, looked up)
Lactotransferrin: GRRRSVQWCAVSQPEATKCFQWQRNMRKVRGPPVSCIKRDSPIQCIQAIAENRADAVTLDGGFIYEAGLAPYKLRPVAAEVYGTERQPRTHYYAVAVVKKGGSFQLNELQGLKSCHTGLRRTAGWNVPIGTLRPFLNWTGPPEPIEAAVARFFSASCVPGADKGQFPNLCRLCAGTGENKCAFSSQEPYFSYSGAFKCLRDGAGDVAFIRESTVFEDLSDEAERDEYELLCPDNTRKPVDKFKDCHLARVPSHAVVARSVNGKEDAIWNLLRQAQEKFGKDKSPKFQLFGSPSGQKDLLFKDSAIGFSRVPPRIDSGLYLGSGYFTAIQNLRKSEEEVAARRARVVWCAVGEQELRKCNQWSGLSEGSVTCSSASTTEDCIALVLKGEADAMSLDGGYVYTAGKCGLVPVLAENYKSQQSSDPDPNCVDRPVEGYLAVAVVRRSDTSLTWNSVKGKKSCHTAVDRTAGWNIPMGLLFNQTGSCKFDEYFSQSCAPGSDPRSNLCALCIGDEQGENKCVPNSNERYYGYTGAFRCLAENAGDVAFVKDVTVLQNTDGNNNEAWAKDLKLADFALLCLDGKRKPVTEARSCHLAMAPNHAVVSRMDKVERLKQVLLHQQAKFGRNGSDCPDKFCLFQSETKNLLFNDNTECLARLHGKTTYEKYLGPQYVAGITNLKKCSTSPLLEACEFLRK
HIV (HTLV-IIIB); sample 63 μg/ml
  ratio of stained (HIV infected) cells: 17%
HIV (HTLV-IIIB); sample 125 μg/ml
  ratio of stained (HIV infected) cells: 8.6%
HIV (HTLV-IIIB); sample 250 μg/ml
  ratio of stained (HIV infected) cells: 7.3%
HIV (HTLV-IIIB); sample 500 μg/ml
  ratio of stained (HIV infected) cells: 5.8%
HIV (HTLV-IIIB); sample 1,000 μg/ml
  ratio of stained (HIV infected) cells: 3.1%
[1]
  Inhibitory rate of infection and proliferation of influenza virus: 87.5%
[2]
  Inhibitory rate of human CMV infection: 94.8%
